Assay results as given in the supplement of paper PMC12667976.

B1: library; numbered along this chain (parent)
chain: MATDAALRRLLRLHRTEIAVAVDSAFPLLHALADHDVVPEDKFQETLHLKEKEGCPQAFHALLSWLLTQDSTAILDFWRVLFKDYNLERYGRLQPILDSFPKDVDLSQPRKGRKPPAVPKALVPPPRLPTKRKASEEARAAAPAALTPRGTASPGSQLKAKPPKKPESSAEQQRLPLGNGIQTMSASVQRAVAMSSGDVPGARGAVEGILIQQVFESGGSKKCIQVGGEFYTPSKFEDSGSGKNKARSSSGPKPLVRAKGAQGAAPGGGEARLGQQGSVPAPLALPSDPQLHQKNEDECAVCRDGGELICCDGCPRAFHLACLSPPLREIPSGTWRCSSCLQATVQEVQPRAEEPRPQEPPVETPLPPGLRSAGEEVRGPPGEPLAGMDTTLVYKHLPAPPSAAPLPGLDSSALHPLLCVGPEGQQNLAPGARCGVCGDGTDVLRCTHCAAAFHWRCHFPAGTSRPGTGLRCRSCSGDVTPAPVEGVLAPSPARLAPGPAKDDTASHEPALHRDDLESLLSEHTFDGILQWAIQSMARPAAPFPS

Variants of: B1
Assay: AIRE transcriptional activation functional score (insulin promoter-GFP; nonsense median 0, synonymous median 1) (normalised score); higher = higher AIRE activity (more reporter activation)
Details: with insulin promoter-GFP reporter in HEK293
Protocol: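 Deep mutational scan of full-length human AIRE (codon-optimized cDNA, DT-POPCode NNN libraries over three regions) integrated at a Bxb1 landing pad in HEK293 cells carrying an insulin core promoter-GFP reporter at a Flp-In site. Cells were sorted for the top 10% GFP about 14 days after transfection. Variant frequency log-ratios (select vs non-select, TileSeq) were rescaled so that the nonsense median is 0 and the synonymous median is 1, then averaged over biological replicates.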

AIRE transcriptional activation functional score, by site and new letter:
D297: Y 0.771, T 0.153, A 0.963, L 0.697, W 0.671, S 0.838, E 0.884, V 0.909, H 0.894, C 0.929, K 1.49, N 0.25, I 0.487, Q 1.32, F 0.8, R 0.34, M 0.682, G 0.852, P 1.29
A300: K 1.08, C 1.39, W 1.22, S 0.968, Y 0.856, Q 0.413, F 1.57, R 1.14, D 1.26, P 1.05, T 0.981, V 1.09, E 0.84, I 1.11, L 0.917, N 0.883, H 0.907, G 0.768
E296: M 1.14, Y 0.486, S 0.991, I 0.711, P 0.799, Q 1.06, V 0.556, T 0.948, K 0.642, N 1.28, L 0.781, R 0.658, W 1.44
E298: Y 0.785, C -0.0529, T 0.228, L 0.839, D 0.987, W 1.13, Q 1.15, R 0.634, A 0.0161, I 1.03, K 1.07, H -2.02, P 0.696, N 1.56, S 0.818, F 0.727, G 1.13, M 0.204, V 0.91
C299: I 0.55, S 0.703, A 0.615, E 0.32, K 0.668, V 0.501, G 0.55, D 0.505, P 0.634, N 0.262, W 0.647, H 0.488, F 0.664, M 0.737, L 0.726, Q 0.508, R 0.523, Y 0.416, T 0.711
R303: W 1.02, N 1.04, M 1.28, G 1.34, T 1.36, L 1.12, C 1.23, K 1.13, S 0.997, D 0.544, H 1.12, F 1.47, E 0.933, V 1.16, P 1.09, A 0.349, Q 1.23, Y 0.774, I 1.32
C302: V 0.651, I 0.572, Q 0.705, T 0.263, E 0.654, K 0.3, D 0.537, F 0.63, L 0.555, H 0.701, N 0.531, G 0.54, P 0.251, R 0.411, A 0.669, S 0.665, W 0.72, Y 0.467
D304: R 0.879, S 1.42, K 1.11, H 1.13, L 0.299, I 0.384, T 1.15, W 1.21, M 1.31, A 0.858, E 0.883, V 0.99, G 0.56, C 1.29, N 0.503, F 0.0957, Y 0.808, P 0.387
V301: F 1.29, N 0.743, Q 1.08, I 0.84, W 2, C 1.08, G 1.08, A 1.01, Y 1.14, M 0.84, S 1, P 0.662, E 1.05, D 0.644, L 1.01, K 1.09, T 0.963, H 1.56, R 1.34
G305: F 0.497, A 0.453, D 1.1, E 0.782, C 1.06
